Data taken from the supplement of paper PMC7877785.
± gives the uncertainty stated by the source.

Experiment: self-splicing fitness, log relative to wild type (ln ratio); higher = more splicing; Tetrahymena group I intron in knt gene, E. coli kanamycin selection, DiMSum; sequences stand for … in CUCUCU…GGAGGGAAAAGUUAUCAGGCAUGCACCUGGUAGCUAGUCUUUAAACCAAUAGAUUGCAUCGGUUUAAAAGGCAAGACCGUCAAAUUGCGGGAAAGGGGUCAACAGCCGUUCAGUACCAAGUCUCAGGGGAAACUUUGAGAUGGCCUUGCAAAGGGUAUGGUAAUAAGCUGACGGACAUGGUCCUAACCACGCAGCCAAGUCCUAAGUCAACAGAUCUUCUGUUGAUAUGGAUGCAGUUCACAGACUAAAUGUCGGUCGGGGAAGAUGUAUUCUUCUCAUAAGAUAUAGUCGGACCUCUCCUUAAUGGGAGCUAGCGGAUGAAGUGAUGCAACACUGGAGCCGCUGGGAACUAAUUUGUAUGCGAAAGUAUAUUGAUUAGUUUUGGAGUACUCGUGGUCG
Method in brief: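 Pooled colonies went to amplicon sequencing on an Illumina HiSeq 2500 after six replicate transformations. The plates were LB agar with 100 μg/mL carbenicillin, 50 μM IPTG and 0.2% rhamnose, with or without 25 μg/mL kanamycin, incubated overnight at 37°C or 30°C. The E. coli BL21(DE3) library had all eight P1ex-region intron nucleotides randomised, the intron placed in the knt kanamycin-resistance gene on pET-22b(+). DiMSum fitness is the error-weighted combination of replicate fold changes, kanamycin against none, normalised to wild type.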

| Sequence | self-splicing fitness (ln) (30 °C) | self-splicing fitness (ln) (37 °C) |
| --- | --- | --- |
| AAUAAGCAAUAUUACGCGAU | -2.22 ± 0.23 | -2.98 ± 0.35 |
| AAUAAGCAAUAUUACGCGCC | -0.204 ± 0.15 | -0.572 ± 0.16 |
| AAUAAGCAAUAUUACGCGCG | -0.258 ± 0.11 | 0.0567 ± 0.15 |
| AAUAAGCAAUAUUACGCGUC | -1.45 ± 0.13 | -1.15 ± 0.16 |
| AAUAAGCAAUAUUACGCUCU | -0.422 ± 0.079 | -0.115 ± 0.09 |
| AAUAAGCAAUAUUACGGAUU | -1.34 ± 0.096 | -0.185 ± 0.12 |
| AAUAAGCAAUAUUACGGCAC | -1.44 ± 0.11 | -0.634 ± 0.14 |
| AAUAAGCAAUAUUACGGCCG | -0.879 ± 0.12 | 0.196 ± 0.2 |
| AAUAAGCAAUAUUACGGGAA | -2.54 ± 0.28 | -0.437 ± 0.2 |
| AAUAAGCAAUAUUACGGGCA | -0.69 ± 0.1 | -0.292 ± 0.11 |
| AAUAAGCAAUAUUACGGGGC | -3.29 ± 0.26 | -2.91 ± 0.37 |
| AAUAAGCAAUAUUACGGUUA | -0.197 ± 0.08 | -0.369 ± 0.077 |
| AAUAAGCAAUAUUACGUCAC | -3.19 ± 0.17 | -3.17 ± 0.21 |
| AAUAAGCAAUAUUACGUCAU | -1.39 ± 0.062 | -0.608 ± 0.092 |
| AAUAAGCAAUAUUACGUGAC | -2.18 ± 0.2 | -2.76 ± 0.35 |
| AAUAAGCAAUAUUACGUUUC | -4.09 ± 0.28 | -2.46 ± 0.24 |
| AAUCAGCAAUAUUACGAAAG | -1.78 ± 0.12 | -0.272 ± 0.13 |
| AAUCAGCAAUAUUACGAGCC | -2.39 ± 0.16 | -0.744 ± 0.19 |
| AAUCAGCAAUAUUACGAGCG | -0.582 ± 0.063 | -0.11 ± 0.079 |
| AAUCAGCAAUAUUACGAGCU | -0.908 ± 0.093 | -0.226 ± 0.093 |
| AAUCAGCAAUAUUACGAGGG | -1.68 ± 0.088 | -0.681 ± 0.096 |
| AAUCAGCAAUAUUACGAUAU | 0.477 ± 0.082 | 0.538 ± 0.1 |
| AAUCAGCAAUAUUACGAUGG | -1.49 ± 0.1 | -0.853 ± 0.12 |
| AAUCAGCAAUAUUACGCACG | -1.02 ± 0.17 | -1.1 ± 0.16 |

| Sequence | self-splicing fitness (ln) (30 °C) | self-splicing fitness (ln) (37 °C) |
| --- | --- | --- |
| AAUCAGCAAUAUUACGCCAC | -3.91 ± 0.21 | -3.78 ± 0.39 |
| AAUCAGCAAUAUUACGCCGG | -1.15 ± 0.086 | -0.932 ± 0.099 |
| AAUCAGCAAUAUUACGCGAC | -1.17 ± 0.085 | -1.96 ± 0.15 |
| AAUCAGCAAUAUUACGCGGC | -1.53 ± 0.26 | 0.179 ± 0.16 |
| AAUCAGCAAUAUUACGCUGC | -3.58 ± 0.26 | -2.36 ± 0.19 |
| AAUCAGCAAUAUUACGGACC | 0.313 ± 0.13 | -0.451 ± 0.13 |
| AAUCAGCAAUAUUACGGCCA | -0.515 ± 0.11 | -0.146 ± 0.12 |
| AAUCAGCAAUAUUACGGCGC | -0.736 ± 0.096 | 0.0282 ± 0.11 |
| AAUCAGCAAUAUUACGGGAA | -1.37 ± 0.097 | 0.137 ± 0.078 |
| AAUCAGCAAUAUUACGGGUG | -0.238 ± 0.044 | 0.275 ± 0.06 |
| AAUCAGCAAUAUUACGGUAU | 0.192 ± 0.063 | 0.705 ± 0.088 |
| AAUCAGCAAUAUUACGGUCG | -0.214 ± 0.048 | 0.0375 ± 0.065 |
| AAUCAGCAAUAUUACGGUCU | -0.356 ± 0.06 | -0.224 ± 0.071 |
| AAUCAGCAAUAUUACGUAAU | -0.172 ± 0.059 | 0.204 ± 0.075 |
| AAUCAGCAAUAUUACGUACA | -0.484 ± 0.076 | 0.13 ± 0.1 |
| AAUCAGCAAUAUUACGUAGC | -1.93 ± 0.093 | -0.229 ± 0.12 |
| AAUCAGCAAUAUUACGUAGG | -1.61 ± 0.056 | -0.958 ± 0.077 |
| AAUCAGCAAUAUUACGUCAC | -3.34 ± 0.27 | -1.93 ± 0.19 |
| AAUCAGCAAUAUUACGUCGU | -0.489 ± 0.054 | 0.414 ± 0.071 |
| AAUCAGCAAUAUUACGUUAG | -3.15 ± 0.2 | -2.86 ± 0.23 |
| AAUCAGCAAUAUUACGUUCG | -1.51 ± 0.07 | -0.466 ± 0.089 |
| AAUCAGCAAUAUUACGUUUU | -0.639 ± 0.058 | -0.399 ± 0.085 |
| AAUGAGCAAUAUUACGAAAC |  | -1.27 ± 0.32 |
| AAUGAGCAAUAUUACGAAGA | -2.8 ± 0.19 | -2.91 ± 0.26 |
